The series is described as follows: label from the status in PepcDB records.
Turning to “MAGASHDIHPPKVEYFDLRDHTNTDPKGFVRHVDHYRVEPWGLYMARTSDHPQFHYLESWLLPDLGLRASIFHYHPYHQRDQDHYVDIGTFTRGDDVWKSEDHYLDLVVRTGRDTELLDVDELMEAHTTGLLDTATAEQAILTATTAIDGIAAHGHDLGRWLASIGMPIDWR”, the protein production entry is on record as “not failed”.

For “MAQKILVEQVVKRKAIVVQPKDTVDRVAKILSRNKAGSAVVMEGDEILGVVTERDILDKVVAKGKNPKEVKVEEIMTKNPVKIEYDYDIEDVIELMTEKGVRRVLVTKFGKPIGFVTAADILAALASHNHEEEEEEREEESEVYGICEVCGQYGALYKVYHEGRELWVCETCKDLIEGR”, the protein production entry was “not failed”.

In the case of “MLSLLLILPVIGALIIGFFPGNIPAKQLRQITEVFAVLTLVWSLLVLFKFDVTDPQFQFQEYLPWIPQLGLNYSLAIDGLSLPLVILNNLLTGVAIYSIGPNVNRSRLYYGLILLINAGISGALLAQNLLLFIVFYELELIPFYLMIAIWGGEKRGYASMKFLLYTAFSGLLVLAAFLGMSLLSGSHSFDYNPEITQTFTESAQTILLILILLGFGIKIPLVPLHTWLPDAYTEASPATAILLGGILAKLGTYGIIRFGLQLFPQTWAQFAPVLAIIGTVTVLYGALSAIAQKDIKRMVAYSSIGHMGYILVAAAAGTELSVLGAVAQMVSHGLILALLFHLVGIVERKAGTRDLDVLNGLMNPIRGLPLTSALLITGGMASAGIPGLVGFAAEFIVFQGSFPTFPIPTLLCILASGLTAVYFVILLNRTCFGKLDNQRAYYPKVLASEMIPALVLTAIIFFLGVQPNYLVHWTQTTTNEMIAQLPHETSAIEQLAQGVTLP”, the protein production result is listed as “failed”.

In the case of “MSLIIDGHTHVILPVEKHIKIMDEAGVDKTILFSTSIHPETAVNLRDVKKEMKKLNDVVNGKTNSMIDVRRNSIKELTNVIQAYPSRYVGFGNVPVGLSENDTNSYIEENIVNNKLVGIGELTPASGQIKSLKPIFKYSMDSGSLPIWIHAFNPLVLQDIKEIAELCKAFPKVPVILGHMGGSNWMTAVELAKEIQNLYLDTSAYFSTFVLKIVINELPLKCIFGTDMPFGDLQLSIEAIKKMSNDSYVANAVLGDNISRLLNIEGHHHHHH”, the protein production entry is “not failed”.

For the sequence “MSASSLFNLPLIRLRSLALSSSFSSFRFAHRPLSSISPRKLPNFRAFSGTAMTDTKDAGMDAVQRRLMFEDECILVDETDRVVGHDSKYNCHLMENIEAKNLLHRAFSVFLFNSKYELLLQQRSNTKVTFPLVWTNTCCSHPLYRESELIQDNALGVRNAAQRKLLDELGIVAEDVPVDEFTPLGRMLYKAPSDGKWGEHELDYLLFIVRDVKVQPNPDEVAEIKYVSREELKELVKKADAGEEGLKLSPWFRLVVDNFLMKWWDHVEKGTLVEAIDMKTIHKL”, the protein production result was “failed”.

As to “MAAGTFTAQNKVRPGVYINFKSEPQAAGTLGERGIVSMPLILSWGEPGKMITIEAGDDVFPKLGYSIMDAQLRLINEALKRAKTLLLYRLNAGTKAAVTVGNLTVTAKWGGARGNDITLVIQENIDDETKFDVSTLVDGAELDKQTVSDIAGLAANDWVIFSGTGALTETAGAPLINGSDGAVTNQAYIDYLAAVEIFDFNTIALPSTDDALKATFTAFAKRLRDDEGKKIQVVLENYPAADYEGVISVKNGVVLADGTILTAAQATAWVAGATAGARVNESLTYQGYDEAVDVAPRYTNAQIIAALQAGEFLFTASDNQALVEQDINTLTSFTADKGKQFAKNRVIRVLDGINNDFVRIFSKFYIGKVSNNADGRNLLKSECINYMNTLQDIDAIKNFDGQTDLTVQSGNDVDAVYIEAYAWPVDSIEKIYVRVRIKLEHHHHHH”, the protein production result is reported as “not failed”.

Regarding “MVKYEELLKTLENGINSEEGEIRLVRKSQGRFKEEFNFDLSLGSKPLLTLKVFLGRKPYWQPWVEVFGVNPNLRNVFFGSEAERKLYEFLSEHFGRIFVEYFEDKETTYELQKGVPPALSRLGFELLKLGYTYFRDWYIPEGLMEGGHKIQAEKPKTEEAKKRHLENLKKEFEEFIGKCEDEGLIKKVKERYNFLEHEGSS”, the protein production result was “not failed”.

With “MIISELVHNNLRGGNKTHNLELKLPVKPVIGGSSSEDDAIVADASSLMHGDNPGLEFRHKELEAPLIPQRTHSLLYQPQKKVKPEATDSYVSQLTAEADDHLQSPNRDSLYTSMPNLRDSPYPESSPDMAEDLSPSRRSENEDIYYKSMPNLGAGRHLHMCYQISRGNSDGYIIPINKEGCIPEGDVREGQMQLVTSL”, the protein production entry is on record as “failed”.

As to “MRKARGKAAKGGRAVTGDPIGDAAVLSALFANSPQGLFVFDSEQKVTRYNPAGRGVRGLPEEDVVGQGIADFVPGFEAVELQGLIDEVLATGEALRGRLVRGRAPSGPHRTLAVEVSLFPLRDLGDGKPGLVGVVEDVTE”, the protein production result is “failed”.

For the sequence “MSLNGKLDFSNRQARILYNKAIAKALFGLDIEYHPKGLVTTPISRYIFLKTFLRGGEVALEIGTGHTAMMALMAEKFFNCKVTATEVDEEFFEYARRNIERNNSNVRLVKSNGGIIKGVVEGTFDVIFSAPPYYDKPLGRVLTEREAIGGGKYGEEFSVKLLEEAFDHLNPGGKVALYLPDKEKLLNVIKERGIKLGYSVKDIKFKVGTRWRHSLIFFKGISEGHHHHHH”, the protein production result was “not failed”.

Consider “KIDFISDVSCPWCVIGLRALDQALEALGDEVQAQIHFQPFELNPNMPAEGQDIKEHIAEKYGSTPEQIEAIHETIRERGAELGFTFGKGERRIYNTFDAHRLLHWAEQEGKQPALKQALFVAYFSELKDPSSHQTLADVAQKVGLDRLRAQAILDSDEFASEVREAEQLWTSRGITSVPTMVFNDQYAVSGGQPVEVFVSAIRQMLSES”, for which the protein production entry is listed as “failed”.

As for “MSSRNTLGNDEPMNQEKEGVESKDTPRTETKGVEKKHSVLVKQDWLPSDYAQYVDEKILNIGFEPDTFQRQAFYLLSRASSVFVSAHTSSGKTLVAEYAISLSQIHGTRTIYTSPIKALSNQKYHDFKQKYDDVGIITGDVQVNPAAKCLVMTTEILRNLVYRNGDLLRDTEFVVFDEVHYINDSERGVVWEECIIMIPRHINFIMLSATIPNSLEFSEWVGRTKDKTIYVISTSKRAVPLEHVIYCDWCVYSIDDGGGKRNASNFKGDLVPFSKKTRPTGKFKILDVANFVVKKKLTPAIFFCFSKRKCEDYAEILRTLNLNDTKSREEVKLFLSEATRCLSPEDRNLPQVLSMSSMVLNGVAVHHGSLLPFVKECVELLFSMNLVKLLIATETFAMGVNMPAKCCVFLSLSKIDGGVFRYISSGEYIQMSGRAGRRGMDAVGTVMIADPKMPSLSTIQGIIHGTPFSLSSQFRLSFGLILISLRSNIRVEDLMRRSYGEHRSQRNYERDMKKLSELESVEEDVCNVCGDLSKYIGAVEEICARNWKLIAKHHVLKEGSRVLLKNNAVGTVERVSGATVFLKQKDEALDNGTPIPTKFLAYPLGTRKPLDRSKVTFENIFCVLDGEKALWNYETANVMDVLEIRKIKSLYDYLLSEQQVCREFDQHYSNALRVHCKRKEMNDIKIRYNVCSLGMIDEYNRRMEFLKKKGFVEEMITIKGRAAAEIHTVNEVLVVEMIFSNEFRQMDGRKIVSLMSSMIHEEADGQELGKALYDECKRMDECFRELSRDLDELMIPPFTPLNFSLVDAVYDWCNGSSLGKIVSRYNVLEGTFVRLVLRLEECCRELISVSTMIGDKSLEEKIGDASASMKRDIIFLPSLYL”, the protein production result is “failed”.

Regarding “YDQVTRIIGVAKDITDQIEASESLRDSEQRYRMLAESISDVIFSTDSKLSLNYVSPSVHAVLGYDVEWIFQNGWQSTIANPQQLSGIYTLMDRVSKALDKPEQLAQLRSQVQTQLFLFDCLRADGRKIPIELRLVLVWDEHGAFEGVLGVGRDISQQRRAEKDLRMAATVFEHSTS”, the protein production result is on record as “failed”.

Regarding “MGHHHHHHSHMAAPEAEVLSSAAVPDLEWYEKSEETHASQIELLETSSTQEPLNASEAFCPRDCMVPVVFPGPVSQEGCCQFTCELLKHIMYQRQQLPLPYEQLKHFYRKPSPQAEEMLKKKPRATTEVSSRKCQQALAELESVLSHLEDFFARTLVPRVLILLGGNALSPKEFYELDLSLLAPYSVDQSLSTAACLRRLFRAIFMADAFSELQAPPLMGTVVMAQGHRNCGEDWFRPKLNYRVPSRGHKLTVTLSCGRPSIRTTAWEDYIWFQAPVTFKGFRE”, the protein production result is reported as “failed”.

In the case of “MIILGQALYQKDQFAEAAKCLEQAASKLLDTSPTEVEEVDLLIVASQWAGVSNIRQGKTSEGITHLERVANMKEPDDPKSKAHYLDALVLYSSAIFNEGRREEAAKYLRRVVAYDPSFSELLKQCEEDDTIPTSSSSNSTSKTS”, the protein production entry was “failed”.

Take “MGLGRYLPYLLSAALLLLCGCERTDTHAQPAKENGEIKVAPYGSWQSPLSAADVFKQTDDIAELQSVGNAIYFAESSGRDQGKVGIKRLDGLGKVTQVVLPDFNVKSTVHEYGGAAFLGIGKSLFATKMQDQLFYRFAPNQPPLPLTPNGTRHADCVAYPKGSRIICVREDHRQGGEPKASLVTINLNFAGEGDTFVSGHDFISSPTISPDNTQLAWITWEHPYMPWDNSVLWLGELDRKGQLKNVRKVSTPEASSVAQPLFGPDGKLYVVSDISNWWNIYRVTPSYTLEPVLSKNAEFAVPDWRLGNHNYAFENATTLIASYVEGNRAALLRIHLDSELTESLAIDFAEITQVVKGEDGVYFVGAKATPEKGIYRVVGRGTELVYAPALANLNPNYVSRAINIAFATGKDQQAYGYFYGPVNPKYVPPHDTRPPLIVMLHGGPTSRASLAYRSEIQFWTSRGFAVLDLNFRGSSGFGRAYRQSLYGKWGESDVEDAVNAAKYLVAKGWVDANKLAIRGISAGGLTVMSSLAFYNVFQAGVSYEGISDVEQLAKSTHKFESGYLDQLIGPYPENTDRYRELSPLNHLDGLNEPLLIFQSLRNKIVPTSQSRQIYDALKAKGVPTAYIDYGDDSDEGRTPEHKAAGLETELAFYGQVFKFTPAGKLPPLILDNISALTP”: the protein production entry is given as “failed”.

With “MTNPLNSTAANRSNQPSSDGISDGQITNEEAESLINKKNCSGHKLKEVTDSDTFSDNGKDDSDTKKRFHYHQDQRRMSLTSIVAVESPSSSNAPSRKTIDLGHGSDLIYIQRFLPFQQSWTFFDYLDKHIPWTRPTIRVFGRSCLQPRDTCYVASSGLTALVYSGYRPTSYSWDDFPPLKEILDAIYKVLPGSRFNSLLLNRYKGASDYVAWHADDEKIYGPTPEIASVSFGCERDFVLKKKKDEESSQARNKPTFVWCEPAGKTGDSGPAKKRLKRSSREDQQSLTLKHGSLLVMRGYTQRDWIHSVPKRAKAEGTRINLTFRLVL”, the protein production result was “not failed”.

Take “GEELLPDGVPEEVMESAQPVANEEIVAQLVSMGFSQLHCQKAAINTSNAGVEEAMNWLLSHMDDPDIDAPI”: the protein production result was “not failed”.

Turning to “MNIELFIQRAEALHKQLADLYQTASVLPWIPPDLLPQAFKELYSNSKLVQLAAEELYHQNEELIQTRSLLEAERQHYHDLFEFAPDGYLVTNAEGIIQEANLTATKLFNAPKHILVDRSVINFIRLEERESFHCELNQLFQTDKAKKLIVRLHQFHGESFDALLTISVVRSQNGKIKSLHWLLSHINENQQQSLGLVNHENYLSQNRPVYVYAKGENIPLNPLVIWYVRQGLVKLSTFCETGEEVLTGLAKTHMVFGSSMTKLPIYQATALADVELVSINFAEIAVSQMLSHILLPKINQQLQQKESFLVITGRRKIEDRLYHLLQFLKQEIGEPVGEKTRLSVRFTHEDIASACCTTRVTITRLMGKLQQQGLISFDSKKHMIINKRLEDRE”, the protein production entry was “failed”.

Consider “MRGKKRIGLLFLLIAVVVGGGGLLLAQKVLHKTSDTAFCLSCHSMSKPFEEYQGTVHFSNQKGIRAECADCHIPKSGMDYLFAKLKASKDIYHEFVSGKIDSDDKFEAHRQEMAETVWKELKATDSATCRSCHSFDAMDIASQSESAQKMHNKAQKDSETCIDCHKGIAHFPPEIKMDDNAAHELESQAATSVTNGAHIYPFKTSHIGELATVNPGTDLTVVDASGKQPIVLLQGYQMQGSENTLYLAAGQRLALATLSEEGIKALTVNGEWQADEYGNQWRQASLQGALTDPALADRKPLWQYAEKLDDTYCAGCHAPIAADHYTVNAWPSIAKGMGARTSMSENELDILTRYFQYNAKDITEKQ”, for which the protein production result is listed as “failed”.

For the origin of these results see a protein production outcome set (Wang et al. 2014).
